Assay: soluble on expression in E. coli; label from the status in PepcDB or PDB records

Sequence | soluble on expression in E. coli
MLAEIKGLNEECGVFGIWGHENAAQVSYYGLHSLQHRGQEGAGIVVNNGEKIVGHKGLGLISEVFSRGELEGLNGKSAIGHVRYATAGGSEVANVQPLLFRFSDHSMALAHNGNLINAKMLRRELEAEGSIFQTSSDTEVLLHLIKRSTKDSLIESVKEALNKVKGAFAYLLLTGNEMIVALDPNGFRPLSIGKMGDAYVVASETCAFDVVGATYIRDVEPGELLIINDEGIHVDRFTNEVDHAICSMEYIYFARPDSNIAGINVHAARKNMGKRLAAEAPIEADVVTGVPDSSISAAIGYAEATGIPYELGLIKNRYVGRTFIQPSQELREQGVKMKLSAVRGVVEGKRVVMIDDSIVRGTTSKRIVRMLREAGATEVHVRIASPPLKYPCFYGIDIQTRKELIAANHTVEEIREMIGADSLTFLSEDGLVDAIGRPYEGKYGGLCMAYFNGDYPTALYDYEQELLESMK | not soluble
MKWRCLIYIETRGDILFMTKWFNVGKIVNTHGVRGEIRVISRTDFPEERYKVGNTLYISNEKGTDYLPVKVTSHRQHKTFDLLTFEGYNNVDEVEKFKGSLIKVPEEQLGELAEGEYYYHEIIGCSVVTEEGEALGTIKEILSPGANDVWVIKRPKGQDLLIPYIDDVVLQVNIENKLVTIHVMEGLLLEHHHHHH | soluble
MGSDKIHHHHHHMAALENKIDFAIAFAVNNANPNGDPLNGNRPRTTSEGLGEVSDVALKRKIRNRLQDAGESVFVQSDDRSDDGAKSLSDRFNTYLKTLPKDEQKQKNVVFGKVCERWLDVRSFGQVFAFKKAKDTDEVSIGVRGPVSIQPAFSINPIAIDDVQITKSVNSETTDSGKKSSDTMGMKYRVSGRAVYVTYGSISPQLAERTGFSAEDAEKIKEALVTLFENDESSARPSGSMEVLDVVWFAHNCKGGQYSSAKVHRSVSVDADGTVNVDDASIPGLRYEVIEGR | not soluble
MGSDKIHHHHHHVNYPKVYTSEQACPINLVGETGQAVQISIHAPSQYICANCERILPDWKRQSFLRVVIVLQQSRYQLVKKTTEVESEKERLREKFMRFGCDLAFNLRDRGYLTDLIDPRTGYPLLSHPGAIPHDDTAVVKALLNYPVIKNQCRVLVHPEWGAAVYPSILISEAPPILIEWVTKGIAAMHGWKEISH | not soluble
MVSEQHAVDICLDKLRFYEVLSAHGFPVVPTALSLAELDDGDYVVKERYGAGATNIGLRLTKEEANRHAQKLEAPVFQPFIAGAEFSIDLYMTRTGRVKGAVARTREYVVNGESQITTTIRNEKLEDMCIAVASYLRLYGHAVMQVIIDYEGQFHLIECNPRFGGASTVSLEAGLDSFYWFFLESQGGDLDDYPFSRSMKEKRQIRYPADFVIDL | not soluble
MGSDKIHHHHHHMSYRLNIENLREFMSETSDSCEHLVFPQKRGIYRAQKEWIASGITLFKCTLRAEDEVVIEQKESAFFGGAFIHVVLEGGVSFETSQPKGSFEYRRGYTTAMEALHPSGITRVARGVSVHSIGIHIHEDFLRSREIEWKKIAKEPRLLPSNPKVEWIAKSLYQGRGGAQSDADRLRVESQILEILSCELQREETRGGMERVKLSGYDLEALHKARVILEQNLKNPPSLIELSRAIHLNEFKLKFGFKRLFGVAPYEMLFLFRMQRARGLLEEGIFSVGEVAKEVGYAQQSSFSAAFFRHFGVLPKEVAKSWKD | not soluble
MAGAITLACTIRFEANAEHVYLSSGTKQTVYHYPFPMSTIHITLNGERKEVPAGSTVSELLVIADADRQPVAVVVNEHIVRPDQRDSYILQERDQVEILVFAGGGLEHHHHHH | soluble
MSLTARIDQLLLERLKSAGVEPAPAADDGEFLRRAYLDLSGTIPPVAITRDYLADSSPAKRRQLIERLLASPAFASHLASTWREIILKPTDDFQQLQNQFALQAWLREQFSENARYDRIVEQFITASSEQDGPVYFYDALDLKPEQLAAETSRIFLGLHIQCAECHDHPFDDWKQRDFWGYAAFFARVAKRDSAMGRISEGHHHHHH | soluble
AIAAQKISEAHEHIAKAEKYLKTSFMKWKPDYDSAASEYAKAAVAFKNAKQLEQAKDAYLQEAEAHANNRSLFHAAKAFEQAGMMLKDLQRMPEAVQYIEKASVMYVENGTPDTAAMALDRAGKLMEPLDLSKAVHLYQQAAAVFENEERLRQAAELIGKASRLLVRQQKFDEAAASLQKEKSMYKEMENYPTCYKKCIAQVLVQLHRADYVAAQKCVRESYSIPGFSGSEDCAALEDLLQAYDEQDEEQLLRVCRSPLVTYMDNDYAKLAISLKVPGGGGGKKKPSASASAQPQEEEDDEYAGGLC | soluble
MGSDKIHHHHHHVKFFVIGDVTVDHLYHLDRLPAPGEEVAPTRATMKPGGAGGTISVTLARLGHSVTLAARVGDDPFAEYALASVRESGVLQAAIQIDPEHLTSTITVMQTPDGQRAMISDGAANRQLDPAKLKKKDIEGADALIVSAYSLTEGPQREYTLKAIETAKKAKKPVPVFIDLGTGAVNKVGTDLIENVIGADYLTLNQHELLALTDTTSISAALAQLGDAGARRVIVKVGRMGSIVWTPTETELVDPIKPEGRVVDSTGAGDTFTAAFAHAVLTGHSLPQAARIGNAAGALAATRVGAQARPITLADLEAALAR | not soluble
MLQPTPTLTDQVAGQLARAIADGAYAVGAKLPTGRALAQQYGVSAAVIREATERLRAQGLVQSRQGSGCTVVARMPAGGFQVPAGGLDRAHLARVYELRMELEGGAAALAARRRGAADLDRMRQALQALQREPIEPEQGVVHDVGFHVAIATATANPYYLQLLQYLNLQLRQAVETARANTRRQGDPVHAVHEEHLAIYRAIERGEPEAARAAAQHHLLGAAARLQLDMNL | not soluble
FRYDNTTPKTLRHVALLLEQGIETNDFYSGLHRRELKQTRLEGYILQHFSIIDGCVGVMKLTSELLAEYDVTANESAAFVNSFSDVE | soluble
MAHHHHHHMRRSSSCLYKIPKNTGVAPRFDTWNEKYEPWEHLKRMGRLAGTGFYIPPEWYNHFRMFPPINHNFQQEKTLNPHNVSEPTQDDTDYLSVERIALRDELARKSRLLASEGMRYYNVFWIRKPLDRMERHYYELERKGVAHSVAIKRVLQMFYDELTVKKRVAAIQAEEAKLSGKYISMREATVLMGVLTQLQKEQLTPHQVTLLAKEQREKAQAGEAFAATVERSTETVADAAKDAAEGDEVMSADSLAELLSTEADLDDSSPSISYKVTIHETEHDSVKQLQELALDHTGKSDWYTGASPVLHMEEAMPAKRTPASKKTES | not soluble
FWGVWASEPPHPVLHASHDAAGWRLRGTKAWCSGASMCTHALVTARVDEQPRLFAVDLREPGVTAGRGGWRNPGMAATDTESVTFDGVPARPVGAPDE | not soluble
MRNPENVLNSLSKHSGNLNYKFERLYRVLFNEEMFYVAYQNIYSKTGNMTAGADGKTIDGMSIDRVEQLIGSLKNETYQPNPSKRTYIPKKNGKKRPLGIPSFDDKLVQEVVRMILEAIYEGSFEHTSHGFRPKRSCHTALIDIQKTFTAVKWFIEGDIKGFFDNINHDVLINILRERIADERFLRLIRKFLNAGYVEDWVFHRTYSGTPQGGIISPILANIYLDKFDKYIKEYINRFNKGVTRKGDARYKLYEQRRYRLAKKLKNEKDVKVRKQMTAEIKRLREERNNYPARNEMDSSIKRLKYVRYADDFLIGITGNLEDCKTVKEDIKNYLNEALKLELSDEKTLITNAQKPAKFLGYDVFIRRCNDLRKDKYGKTVRAFGHKPVLYLNFETMRKKLFDYKAARIAVVNGKEVWKSIVRTYMLNLDDLEIVSQFNAEIRGFYNYYSIANNSYVINSFYHIMSYSMYKVFANKYKSSVKKILLKYKKNKVFQVAYENSKGKTLYQSFYHDGFKRKKVAGNIYCDTIPRTVSITGGRNSLMERLKLQVCELCGATDKLEMHHVRKLKDLKGKSDWEKKMIARRRKTLAVCSKCHAKIDPDRRIRLNLEHHHHHH | soluble
SLNSPIATVEVFTLTQPRKVPYLGALREGEVVNPNGYIVRKGNRTVYPTFDRSVLVRMTTEAGTVGWGETYGIVAPGAVAALINDLLAGFVIGRDASDPSAVYDDLYDMMRVRGYTGGFYVDALAALDIALWDIAGQEAGKSIRDLLGGGVDSFPAYVSGLPERTLKARGELAKYWQDRGFNAFKFATPVADDGPAAEIANLRQVLGPQAKIAADMHWNQTPERALELIAEMQPFDPWFAEAPVWTEDIAGLEKVSKNTDVPIAVGEEWRTHWDMRARIERCRIAIVQPEMGHKGITNFIRIGALAAEHGIDVIPHATVGAGIFLAASLQASSTLSMLKGHEFQHSIFEPNRRLLDGDMDCREGRYHLPSGPGLGVRPSEAALGLIERI | soluble
GKKCFLTVRGNFSWNEDKIIENDDPRVQYPWMEKRGTNVNGRWGWIAEGLFTSEEEIMDHAKQFGEGHPGQISKVGDIKYKDLNGDGVIDDYDKCLIGQGDVPKIYYGFGADLQLGDFSVGALFAGNAKADRCLGGNAMYPFNDGSGITNLFANITDRWSADNPTNQDVFYPRLHHGNNANQNNMKTSTWWQKDVSFLRLKQLTIAYQLPKKLINQTFLKSARIYVMGTNLLTFSKFKLWDPELNTNNGTAYPNVRTYSVGVNVSF | not soluble
MKLKQLEGLLGDLEQFSNPKNRSVIGFDIDPESLETATLNAEELEVEIDFVQCDITKLELKGLIVDTVVMNPPFGTRKKGADMEFLSAAMKVASKAVYSLHKTSTRELRYDLPKLYKFHKRKEVDIAVDLWRFEPRQN | soluble
ESVLTQPPSVSGAPGQRVTISCTGSSSNIGAGYDVHWYQQLPGTAPKLLISGNSNRPSGVPDRFSGSKSGTSASLAITGLQAEDEADYYCQSYDSSLSGSVFGGGTKLTVLGQPKAAPSVTLFPPSSEELQANKATLVCLISDFYPGAVTVAWKADSSPVKAGVETTTPSKQSNNKYAASSYLSLTPEQWKSHRSYSCQVTHEGSTVEKTVAPTECS | soluble
MKPTTRSASKRANAESSGVNQPEKKSRIPETEIVEDPLEIEVPPASADGTDNKSFSENEYDDDHSSSSDEESDDEYVVETHKSSMVDAAESSEGERPDERIVRELEQKIARGLKNDRILKKKKKALDGEVSDTEDVVCEYEPQAMPKQRRRRLYRRKMTRPQGVPKRRRIKRPDLELADDYTCDTFAEQGLTLKSLTSDIKQDDPEVDWKAMRRMGIGIRSTKRDEINSDEDEADIISHSFSFYQTRNSKEQVAQAVELNMNPFSEKIASYNAPKSVHGYSRSSIQNQHSGFIDKNDIKYPDELLWQEPFTHLVFFQSTFNAHESSIKFLNNVANSKKQERDSKLMKEIRERIKQKSLGHVDVPIDYTNVESTSEQPSTIDQYSLPDLTSQCDEGTIKEEEDFDYLMVDAEF | not soluble
MEVEKEFITDEAKELLSKDKLIQQAYNEVKTSICSPIWPATSKTFTINNTEKNCNGVVPIKELCYTLLEDTYNWYREKPLDILKLEKKKGGPIDVYKEFIENSELKRVGMEFETGNISSAHRSMNKLLLGLKHGEIDLAIILMPIKQLAYYLTDRVTNFEELEPYFELTEGQPFIFIGFNAEAYNSNVPLIPKGSDGMSKRSIKKWKDKVENK | soluble
MERGPLIFSASIGNGHNQAAKALQVEFQNKGYQPEIIDTFYSLSPALHKFMLTSYVNLLKVGPRIWQKIYFQAEKYPLFLFLDQFATFFVESLHATVKSNRCSFLVSTHPFVTAFLVRLKSKKQLNLPLYTVITDFVLHPAYLRPEIDGYFTSDPNFTDFAKLNNVSDDRFFPTGIPIPNLESIDQPKWKVRNDLGLDPQRKVLIIAGGGIGLTNYAQVIRALECLPEPIQLLCMIGHNYQVKEKISRIKSKHELKVIEFTDKFLLYLKASDAILSKAGGLTMAESLVCETPIIIHQPVPGHEEHNAKFLIDAGAALRVKGSKEIPTTIKRVLYEEACFGPMIENARKLKKPNAANEIVEQMLLLVKEQQHAFRLEHHHHHH | soluble
KDFVSDVLPTIAECYHHLGQEDELVEFLRACIDKKAGVSAELMLAQLVAHHESVGAAQELLTKQLLKNPTMKGFYRLIDYHIAEAEDGRAKDSLSTLQAMVGEQLKVKPHYRCRKCGFSTHSLYWHCPSCKGWGTIKPIRGLDGE | not soluble
